Source: paper doi:10.1101/2024.01.09.574827, “Discovery and binding mode of small molecule inhibitors of the apo form of human TDO2” (bioRxiv, 2024)

Target: the molecule itself
Assay: crystal structure; sitting drop vapour diffusion at 293 K; truncated apo-TDO2 with 2 mM AMT, alone or after incubation with 1 mM inhibitor (Rac-1, Cpd-1, Cpd-4)

B1: truncated human apo-TDO2 (aa 39-389) with a C-terminal hexa-histidine tag (enzyme, UniProt P48775 39-389, looked up)
chain: GLIYGNYLHLEKVLNAQELQSETKGNKIHDEHLFIITHQAYELWFKQILWELDSVREIFQNGHVRDERNMLKVVSRMHRVSVILKLLVQQFSILETMTALDFNDFREYLSPASGFQSLQFRLLENKIGVLQNMRVPYNRRHYRDNFKGEENELLLKSEQEKTLLELVEAWLERTPGLEPHGFNFWGKLEKNITRGLEEEFIRIQAKEESEEKEEQVAEFQKQKEVLLSLFDEKRHEHLLSKGERRLSYRALQGALMIYFYREEPRFQVPFQLLTSLMDIDSLMTKWRYNHVCMVHRMLGSKAGTGGSSGYHYLRSTVSDRYKVFVDLFNLSTYLIPRHWIPKMNPTIHKFL
notes: human tryptophan-2,3-dioxygenase (TDO2), P48775.1, amino acids 39-389, heme-free (apo) form; S1 Text is said to show additional amino acids introduced as a linker or during subcloning; calculated molecular mass 42940.24 Da; also called tryptophan-2,3-dioxygenase; TDO2 aa39-389-His6; source: E. coli RP523 (hemB mutant, unable to synthesize heme), anaerobic expression, purified (HisTrap, HiTrap Q, …)
For B1, the “stoichiometry N” value was 4.
